According to publication doi:10.1101/2020.05.28.119206 (bioRxiv, 2020):

Molecular target: the molecule itself
Test: cryo-EM structure

B1: elastase-digested native human uromodulin filaments (UMODe) (domain or fragment)
chain: not shown
modifications: N-glycans at N322, N396, N513
B1: binds.
